Data on four molecules can be found in US20100310509A1 (published 2010).

First the molecules themselves.
T1: soluble human LIFR (leukemia inhibitory factor receptor) (human, UniProt P42702 45-833)
T1 construct: extracellular domain; Bought; also called soluble LIFR
T1 sequence (looked up): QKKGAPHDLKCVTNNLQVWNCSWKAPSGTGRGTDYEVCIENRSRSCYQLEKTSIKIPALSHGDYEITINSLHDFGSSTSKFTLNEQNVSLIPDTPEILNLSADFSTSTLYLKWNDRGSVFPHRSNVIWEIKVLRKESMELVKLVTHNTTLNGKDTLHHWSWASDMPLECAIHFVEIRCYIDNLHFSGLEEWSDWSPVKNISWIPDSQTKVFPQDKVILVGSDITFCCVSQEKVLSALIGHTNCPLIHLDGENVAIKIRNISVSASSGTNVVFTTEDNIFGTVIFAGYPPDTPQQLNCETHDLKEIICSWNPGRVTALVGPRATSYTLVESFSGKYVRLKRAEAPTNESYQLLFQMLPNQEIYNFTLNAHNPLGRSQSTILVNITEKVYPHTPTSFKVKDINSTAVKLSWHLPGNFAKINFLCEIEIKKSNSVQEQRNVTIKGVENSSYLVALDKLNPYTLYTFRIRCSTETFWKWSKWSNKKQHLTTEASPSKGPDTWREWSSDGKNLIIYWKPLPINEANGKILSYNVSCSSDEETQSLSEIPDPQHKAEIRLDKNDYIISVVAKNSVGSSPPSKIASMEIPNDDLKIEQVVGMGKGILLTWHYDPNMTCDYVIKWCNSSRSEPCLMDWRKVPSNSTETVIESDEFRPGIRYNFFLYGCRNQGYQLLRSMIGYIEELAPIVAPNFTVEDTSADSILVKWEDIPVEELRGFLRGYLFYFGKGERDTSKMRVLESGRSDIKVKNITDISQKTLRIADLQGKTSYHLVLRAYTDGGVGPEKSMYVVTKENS

B1: OSM-M1 (OSM with BC loop truncated from 12 to 7 amino acids) (ligand)
chain: AAIGSCSKEYRVLLGQLQKQTDLMQDTSRLLDPYIRIQGLDVPKLREHCRERPGAFPSEETLRGLGRRGFLQTLNATLGCVLHRLADLEQRLGAPSGLNIEDLEKLQMARPNILGLRNNIYCMAQLLDNSDTAEPTKAGAGASQPPTPTPASDAFQRKLEGCRFLHGYHRFMHSVGRVFSKWGESPN
notes: Made from the 'AGA' modified OSM template; lacks the thrombin site; not shown: N-terminal FLAG tag left after thrombin removal of GST
B2: OSM-WT ('AGA' modified human Oncostatin M, referred to as wild-type OSM) (ligand)
chain: AAIGSCSKEYRVLLGQLQKQTDLMQDTSRLLDPYIRIQGLDVPKLREHCRERPGAFPSEETLRGLGRRGFLQTLNATLGCVLHRLADLEQRLPKAQDLERSGLNIEDLEKLQMARPNILGLRNNIYCMAQLLDNSDTAEPTKAGAGASQPPTPTPASDAFQRKLEGCRFLHGYHRFMHSVGRVFSKWGESPN
notes: also called hOSM with AGA modification; not shown: N-terminal FLAG tag left after thrombin removal of GST
B3: OSM-M2 (OSM with BC loop truncated from 12 to 4 amino acids) (ligand)
chain: AAIGSCSKEYRVLLGQLQKQTDLMQDTSRLLDPYIRIQGLDVPKLREHCRERPGAFPSEETLRGLGRRGFLQTLNATLGCVLHRLADLEQRLGGGNIEDLEKLQMARPNILGLRNNIYCMAQLLDNSDTAEPTKAGAGASQPPTPTPASDAFQRKLEGCRFLHGYHRFMHSVGRVFSKWGESPN
notes: as for B1
B4: human leukemia inhibitory factor (LIF) (ligand)
chain: not shown
notes: Purified recombinant protein; also called hLIF

This assay addresses T1, soluble human LIFR (leukemia inhibitory …). The assay can be described thus: ELISA, apparent KD (KD,App), cytokine coated, soluble LIFR titrated (direct). How it is done:
For direct interaction studies, cytokines (LIF, OSM-WT, OSM-M1 or OSM-M2) were immobilized on the 96 well ELISA plate by incubating the wells with 200 μl of 5 nM cytokine solution in PBS, pH 7.4 overnight at 4° C. The wells were then blocked with blocking buffer (4% BSA in PBS) for 1 hour at room temperature. After washing with 250 μl of washing buffer (0.05% Tween-20 in PBS) 3 times, the cytokines were treated with a series of concentrations of soluble human LIFR (Catalog #249-LR-050/CF, R&D Systems, Minneapolis, Minn.) or OSMR (Catalog #4389-OR-050, R&D Systems, Minneapolis, Minn.) in 150 μl of blocking buffer for 2 hours. The wells were then incubated with 150 μl of polyclonal anti-hLIFR (Catalog #AF249-NA, R&D Systems, Minneapolis, Minn.) or anti-hOSMR (Catalog #AF662, R&D Systems, Minneapolis, Minn.) in blocking buffer for 1 hour followed by incubation with 150 μl of HRP conjugated […] antibody (GE Healthcare, Uppsala, Sweden) in blocking buffer for 30 minutes. The wells were then washed 3 times with washing buffer and treated with 100 μl of chromogenic Slow-TMB® HRP substrate (Catalog #34024, Thermo Scientific Fisher, Rockford, Ill.) for 15 minutes. The reaction was then stopped by adding 100 μl of 2M H₂SO₄ and the absorbance of each well at 450 nm was read immediately using a UV detector (iMARK® Microplate Reader, Biorad, Hercules, Calif.). For interactions of higher order, soluble human gp130 (Catalog #671-GP-100, R&D Systems, Minneapolis, Minn.) was immobilized on 96 well ELISA microplates by incubating the wells with 200 μl of 1 nM gp130 solution (in PBS, pH 7.4) overnight at 4° C. The wells were then blocked with 150 μl of blocking buffer (4% BSA in PBS) for 1 hour at room temperature. After washing with 250 μl of washing buffer 3 times, gp130 was treated with saturating amounts of the cytokines (500 nM hLIF, 200 nM OSM-WT, 200 nM OSM-M1 or 200 nM OSM-M2) in a volume of 150 μl of blocking buffer for a period of 2 hours. The cytokine solution was discarded and a series of concentrations of soluble human LIFR or OSMR in a final volume of 150 μl blocking buffer were then added to the wells and the incubation was continued for another 1 hour. After washing with 250 μl of washing buffer 3 times, the wells were then incubated with 150 μl of polyclonal anti-hLIFR or anti-hOSMR in blocking buffer for 1 hour.
Take B1: the Kd was 10.1 nM. The figure for B2 is 60 nM. Then B3, with 8.75 nM. B4: the Kd was 8.58 nM.
